The values that follow are results of earlier work, collected in article PMC7179994.

Like-named read-outs stand apart in the source and are kept apart here.

Data set [1] has as its target VE-cadherin (Homo sapiens) (UniProt P33151).
The target in data set [2] is VLDL receptor (Homo sapiens) (UniProt P98155).
The target in data set [3] is VE-cadherin (Homo sapiens) (UniProt P33151). The source holds these as a separate data set.
Sequence of VE-cadherin (Homo sapiens) (P33151 48-599): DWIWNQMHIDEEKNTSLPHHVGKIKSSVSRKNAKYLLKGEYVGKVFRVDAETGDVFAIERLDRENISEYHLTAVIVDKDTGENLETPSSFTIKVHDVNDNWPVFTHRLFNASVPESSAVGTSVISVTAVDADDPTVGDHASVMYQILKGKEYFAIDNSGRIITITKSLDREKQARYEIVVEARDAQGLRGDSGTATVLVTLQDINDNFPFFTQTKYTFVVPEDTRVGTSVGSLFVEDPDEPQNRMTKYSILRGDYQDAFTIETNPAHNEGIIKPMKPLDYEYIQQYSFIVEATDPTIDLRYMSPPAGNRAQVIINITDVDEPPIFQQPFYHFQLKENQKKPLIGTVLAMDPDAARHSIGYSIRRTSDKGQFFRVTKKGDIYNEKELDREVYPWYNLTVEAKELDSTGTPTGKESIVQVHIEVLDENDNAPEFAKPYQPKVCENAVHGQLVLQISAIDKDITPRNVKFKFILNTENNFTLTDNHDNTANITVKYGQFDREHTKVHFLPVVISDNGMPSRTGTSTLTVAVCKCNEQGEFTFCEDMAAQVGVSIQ

Sequence of fibrin β15–42 15-42 (P02675 15-42): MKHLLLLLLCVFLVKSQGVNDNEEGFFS
Sequence of (β15–44)2 15-44 (P02675 15-44): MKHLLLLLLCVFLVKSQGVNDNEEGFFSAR

In general, Kd refers to the free concentration of one partner at which half of the binding sites on the other are occupied at equilibrium, for simple one-to-one binding. As to (β15–44)2 15-44 (from UniProt P02675), the Kd in data set [1] was 715 nM.
Regarding fibrin (from UniProt P02671), the Kd in data set [2] is 9.2 nM.
On to “fibrin β15–42 15-42 (from UniProt P02675)”, for which the Kd in data set [3] was 267000 nM.
